Assay results published in PMC10786891, “Massively parallel profiling of RNA-targeting CRISPR-Cas13d”.
Changes are numbered by the printed parent chain.

T1: EsCas13d, nuclease-dead (Eubacterium siraeum, UniProt B0MS50, R295A;H300A;R849A;H854A)
T1 sequence: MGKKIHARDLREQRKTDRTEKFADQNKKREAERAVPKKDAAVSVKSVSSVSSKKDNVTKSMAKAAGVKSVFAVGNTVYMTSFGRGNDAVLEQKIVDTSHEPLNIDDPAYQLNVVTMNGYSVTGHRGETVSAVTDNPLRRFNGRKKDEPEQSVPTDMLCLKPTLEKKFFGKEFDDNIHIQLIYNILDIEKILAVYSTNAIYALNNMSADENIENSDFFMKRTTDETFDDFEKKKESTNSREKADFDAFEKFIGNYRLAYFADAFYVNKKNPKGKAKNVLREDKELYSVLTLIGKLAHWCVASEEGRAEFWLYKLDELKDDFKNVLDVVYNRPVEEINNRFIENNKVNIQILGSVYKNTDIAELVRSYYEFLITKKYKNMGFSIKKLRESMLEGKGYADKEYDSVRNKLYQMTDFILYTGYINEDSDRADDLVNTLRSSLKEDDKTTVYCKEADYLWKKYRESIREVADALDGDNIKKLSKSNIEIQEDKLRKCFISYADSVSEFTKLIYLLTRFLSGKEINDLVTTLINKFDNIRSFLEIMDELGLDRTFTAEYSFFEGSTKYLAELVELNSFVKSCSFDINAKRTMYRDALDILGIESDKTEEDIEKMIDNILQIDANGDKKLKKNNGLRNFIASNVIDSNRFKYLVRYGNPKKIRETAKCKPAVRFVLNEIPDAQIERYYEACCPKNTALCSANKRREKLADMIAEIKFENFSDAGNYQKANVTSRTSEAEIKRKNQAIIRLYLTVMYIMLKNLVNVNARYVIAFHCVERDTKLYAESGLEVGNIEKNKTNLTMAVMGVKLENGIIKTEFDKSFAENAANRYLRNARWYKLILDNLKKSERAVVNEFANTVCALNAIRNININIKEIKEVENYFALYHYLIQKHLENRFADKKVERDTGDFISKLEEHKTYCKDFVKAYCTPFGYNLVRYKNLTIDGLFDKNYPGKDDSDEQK

B1: target 1 insG 3' of 22,insU 3' of 22 (mixed)
RNA 1: CACCCGUGCAAAAAUGCAGGGGUCUAAAACUGAGCGGAUAACCUCUCUAUGG
RNA 2: GGGAAUGGAUCCACAUCUACGAAUUCGUACGUCAUAGAGAGGUUAUCCGCUCACCGAGAUCGGAAGAGCACACGU
B2: target 1 insC 3' of 8,insG 3' of 3 (mixed)
RNA 1: B1 RNA 1
RNA 2: GGGAAUGGAUCCACAUCUACGAAUUCGUACCAUAGAGAGGUUAUCCCGCUGCACCGAGAUCGGAAGAGCACACGU
B3: target 1 insG 3' of 19,insC 3' of 19 (mixed)
RNA 1: B1 RNA 1
RNA 2: B1 RNA 2 with G31C, U32A, C33U, A34G, U35C
B4: target 2 MT 5'PFS GUG 3'PFS AGA (mixed)
RNA 1: CACCCGUGCAAAAUUGCAGGGGUCUAAAACCUUCUCCAAAUUGUUUCAUCCU
RNA 2: GGGAAUGGAUCCACAUCUACGAAUUCGUGAGGAUGAAACAAUUUGGAGAAGAGAAGAUCGGAAGAGCACACGU
B5: target 2 MT 5'PFS CGC 3'PFS CUA (mixed)
RNA 1: B4 RNA 1
RNA 2: B4 RNA 2 with G27C, U28G, G29C, A52C, G53U
B6: target 2 MT 5'PFS GCA 3'PFS CUG (mixed)
RNA 1: B4 RNA 1
RNA 2: B4 RNA 2 with U28C, G29A, A52C, G53U, A54G
B7: target 2 MT 5'PFS ACG 3'PFS AUA (mixed)
RNA 1: B4 RNA 1
RNA 2: B4 RNA 2 with G27A, U28C, G53U
B8: target 2 MT 5'PFS GGG 3'PFS CGC (mixed)
RNA 1: B4 RNA 1
RNA 2: B4 RNA 2 with U28G, A52C, A54C
B9: target 2 MT 5'PFS GGG 3'PFS AGU (mixed)
RNA 1: B4 RNA 1
RNA 2: B4 RNA 2 with U28G, A54U
B10: target 2 MT 5'PFS GCA 3'PFS CUU (mixed)
RNA 1: B4 RNA 1
RNA 2: B4 RNA 2 with U28C, G29A, A52C, G53U, A54U
B11: target 2 MT 5'PFS GCA 3'PFS CUC (mixed)
RNA 1: B4 RNA 1
RNA 2: B4 RNA 2 with U28C, G29A, A52C, G53U, A54C
B12: target 2 MT 5'PFS CGC 3'PFS CUG (mixed)
RNA 1: B4 RNA 1
RNA 2: B4 RNA 2 with G27C, U28G, G29C, A52C, G53U, A54G
B13: target 2 MT 5'PFS GCU 3'PFS UAC (mixed)
RNA 1: B4 RNA 1
RNA 2: B4 RNA 2 with U28C, G29U, A52U, G53A, A54C
B14: target 2 MT 5'PFS GGG 3'PFS AGG (mixed)
RNA 1: B4 RNA 1
RNA 2: B4 RNA 2 with U28G, A54G
B15: target 2 MT 5'PFS GGG 3'PFS CGG (mixed)
RNA 1: B4 RNA 1
RNA 2: B4 RNA 2 with U28G, A52C, A54G
B16: target 2 MT 5'PFS ACG 3'PFS AUU (mixed)
RNA 1: B4 RNA 1
RNA 2: B4 RNA 2 with G27A, U28C, G53U, A54U
B17: target 2 MT 5'PFS GUC 3'PFS CUA (mixed)
RNA 1: B4 RNA 1
RNA 2: B4 RNA 2 with G29C, A52C, G53U
B18: target 2 MT 5'PFS GUG 3'PFS AGU (mixed)
RNA 1: B4 RNA 1
RNA 2: B4 RNA 2 with A54U
B19: target 2 MT 5'PFS GGG 3'PFS CGA (mixed)
RNA 1: B4 RNA 1
RNA 2: B4 RNA 2 with U28G, A52C
B20: target 2 MT 5'PFS GCU 3'PFS UUC (mixed)
RNA 1: B4 RNA 1
RNA 2: B4 RNA 2 with U28C, G29U, A52U, G53U, A54C
B21: target 2 MT 5'PFS UUA 3'PFS UUA (mixed)
RNA 1: B4 RNA 1
RNA 2: B4 RNA 2 with G27U, G29A, A52U, G53U
B22: target 2 MT 5'PFS ACA 3'PFS CGC (mixed)
RNA 1: B4 RNA 1
RNA 2: B4 RNA 2 with G27A, U28C, G29A, A52C, A54C
B23: target 2 MT 5'PFS GGG 3'PFS AGC (mixed)
RNA 1: B4 RNA 1
RNA 2: B4 RNA 2 with U28G, A54C
B24: target 2 MT 5'PFS GUG 3'PFS AGC (mixed)
RNA 1: B4 RNA 1
RNA 2: B4 RNA 2 with A54C
B25: target 2 MT 5'PFS GCU 3'PFS UAA (mixed)
RNA 1: B4 RNA 1
RNA 2: B4 RNA 2 with U28C, G29U, A52U, G53A
B26: target 2 MT 5'PFS GUC 3'PFS CUU (mixed)
RNA 1: B4 RNA 1
RNA 2: B4 RNA 2 with G29C, A52C, G53U, A54U
B27: target 2 MT 5'PFS GCA 3'PFS CUA (mixed)
RNA 1: B4 RNA 1
RNA 2: B4 RNA 2 with U28C, G29A, A52C, G53U
B28: target 2 MT 5'PFS GGG 3'PFS CGU (mixed)
RNA 1: B4 RNA 1
RNA 2: B4 RNA 2 with U28G, A52C, A54U
B29: target 2 MT 5'PFS CGC 3'PFS CUC (mixed)
RNA 1: B4 RNA 1
RNA 2: B4 RNA 2 with G27C, U28G, G29C, A52C, G53U, A54C
B30: target 2 MT 5'PFS UUA 3'PFS UUG (mixed)
RNA 1: B4 RNA 1
RNA 2: B4 RNA 2 with G27U, G29A, A52U, G53U, A54G
B31: target 2 MT 5'PFS GAG 3'PFS CAU (mixed)
RNA 1: B4 RNA 1
RNA 2: B4 RNA 2 with U28A, A52C, G53A, A54U
B32: target 2 MT 5'PFS GUC 3'PFS CUC (mixed)
RNA 1: B4 RNA 1
RNA 2: B4 RNA 2 with G29C, A52C, G53U, A54C
B33: target 2 MT 5'PFS GAU 3'PFS AUU (mixed)
RNA 1: B4 RNA 1
RNA 2: B4 RNA 2 with U28A, G29U, G53U, A54U
B34: target 2 MT 5'PFS ACA 3'PFS CGG (mixed)
RNA 1: B4 RNA 1
RNA 2: B4 RNA 2 with G27A, U28C, G29A, A52C, A54G
B35: target 2 MT 5'PFS GAC 3'PFS CCG (mixed)
RNA 1: B4 RNA 1
RNA 2: B4 RNA 2 with U28A, G29C, A52C, G53C, A54G
B36: target 2 MT 5'PFS GGG 3'PFS AGA (mixed)
RNA 1: B4 RNA 1
RNA 2: B4 RNA 2 with U28G
B37: target 2 MT 5'PFS GUG 3'PFS AGG (mixed)
RNA 1: B4 RNA 1
RNA 2: B4 RNA 2 with A54G
B38: target 2 MT 5'PFS UUA 3'PFS UUU (mixed)
RNA 1: B4 RNA 1
RNA 2: B4 RNA 2 with G27U, G29A, A52U, G53U, A54U

These binders were tested against T1, EsCas13d, nuclease-dead (assay: crRNA (strand 1, pre-loaded); Mg2+; 40 mM Tris-HCl pH 7.5, 150 mM NaCl, 6 mM MgCl2, 1 mM DTT, 0.1% Tween-20, 0.2 mg/ml BSA; 25 C; 10 min per concentration, then washed). Settings: tags: His6-TwinStrep-SUMO cleaved; N-terminal SNAP kept (SNAP-Surface 488); label: 3' end held by stalled T7 RNA polymerase.
B1 gave a Kd of 23.5 ± 2.9 nM.
B2 showed a Kd of 9.8 ± 0.4 nM.
B3 showed a Kd of 82 ± 11 nM.
Work on B4 yielded a Kd of 10.3 ± 1.8 nM.
B5 showed a Kd of 7.4 ± 1.8 nM.
B6 showed a Kd of 12.5 ± 2 nM.
With B7 the Kd was 11 ± 4 nM.
For B8, the Kd was 10.5 ± 0.9 nM.
In the case of B9, the Kd is reported as 6.2 ± 0.5 nM.
B10 was tested, and the Kd was 16 ± 4 nM.
B11 showed a Kd of 23 ± 7 nM.
In the case of B12, the Kd is reported as 8 ± 1.9 nM.
B13 was tested, and the Kd was 13.2 ± 2.4 nM.
B14 showed a Kd of 7.5 ± 0.5 nM.
With B15 the Kd was 8.5 ± 0.5 nM.
B16 showed a Kd of 5.6 ± 1 nM.
B17 showed a Kd of 11.8 ± 1.8 nM.
For B18, the Kd was 12.3 ± 1.1 nM.
In the case of B19, the Kd is reported as 8.2 ± 0.7 nM.
B20 gave a Kd of roughly 90 nM.
With B21 the Kd was 49 ± 21 nM.
B22 showed a Kd of 4.9 ± 0.7 nM.
In the case of B23, the Kd is reported as 6.5 ± 0.4 nM.
Binder B24 has a Kd of 7.2 ± 0.4 nM.
B25 was tested, and the Kd was 7.8 ± 1.8 nM.
Work on B26 yielded a Kd of 13.9 ± 1.2 nM.
B27 showed a Kd of 10.9 ± 2.5 nM.
With B28 the Kd was 9.8 ± 0.7 nM.
With B29 the Kd was 9.6 ± 1.7 nM.
B30 gave a Kd of 19.3 ± 2.8 nM.
B31 gave a Kd of 5.14 ± 0.34 nM.
B32 showed a Kd of 15.5 ± 2.4 nM.
Work on B33 yielded a Kd of 8.3 ± 0.8 nM.
Binder B34 has a Kd of 5.2 ± 0.9 nM.
Work on B35 yielded a Kd of 13 ± 1.5 nM.
B36 gave a Kd of 5.5 ± 0.5 nM.
In the case of B37, the Kd is reported as 11 ± 0.7 nM.
In the case of B38, the Kd is reported as roughly 70 nM.
